The nature of this data set: soluble on expression in E. coli; label from the status in PepcDB or PDB records.
As to “MHGNPMNIPPVSIAAAKAALIEQYADPTLRRRASMLWGTRGVGKSSIVRQVAAHYRVPLIDLRLTTIEPVDIRGAIYADENLAKTVWFPPEFLPSRDQPEGVLFLDELTAADQRLQISAYSLILDRRVGNYHLPDGWQVVAAGNASFHGAISHDMGTALADRMFHFNVQTAIDAFLNHAITQEFAPEVMAYLKIRPDKLDDTQAQLAGDHLIGASPRGWEDISNVLKSGLSDHAKRLFVQGRIGAANAAEFFGVLREIQAGTDVLKLLAARPGPETAALLPKSLDALYGMLYGLLAASTDKQTMARALEIIEQLPDIRSAAPLPIREAQTLAMELLMQRGLENGLESAILDSPAYASYAGRRQLEASDALEHHHHHH”, the “soluble on expression in E. coli” value was “not soluble”.

On to “GLGKFIETCRNTQLAGSSELAAECKTRAQQFVSTKINLDDHIANIDGTLKWQPSNFSQTCYNSAIQGSVLTSTCERTNGGYNTSSIDLNSVIENVDGSLKYE”, for which the “soluble on expression in E. coli” value is “soluble”.

Take “LKQQQQQQQQQQQQQQQQQQQQQQQQQQQQQQQQQQQQQQQQQQQQQQQQQQQQQQQQQQQQQQQQQQKSQNRTKQEQGQQSQNQQDAENKKEKQESEHKAKQQKAETEVEKQGEQKKGEPMQAQAQPEKSHQDDPEFRRLEAVESARDPSFLIRAQMQLQAQQKQRPQQSQKEW”: the “soluble on expression in E. coli” value is recorded as “not soluble”.

Regarding “MKKEQISTQFYEVNPHTMIIFPKKSGSIVYSEIYEVDSHYTSKFTPFELIKTSCNFFGSSYDGGRRNGIPKIKTSSQKDVFILLLYRRNSISVTNY”, the “soluble on expression in E. coli” value is on record as “not soluble”.

Take “MNNILSEEVLNVTDFTTSRQLTLWKREDLQSPQLDDVAEEVPVALVYNGISHVVMMASPKDLTHFAMGFSLSEGIIDSPREIYGMDVVPSCNGLEVQIDLSSRRFMGLKARRRALAGRTGCGVCGVEQLNDIGKPVQPLPFSQTFNLGNLDRALKHLNDFQPTGKLTGCTHAAAWVMPSGELAGGHEDVGRHVALDKLLGRRATEGEEWRQGAALVSSRASYEMVQKSAMCGVEILFAVSAATTLAVEVAERCNLTLVGFCKPGRATIYTHPQRLIADLEHHHHHH”: the “soluble on expression in E. coli” value is “not soluble”.

Turning to “GMKSSQPFIYEAHAARVVFGAGSSSQVAAEVERLGAKRALVLCTPNQQAEAERIADLLGPLSAGVYAGAVMHVPIESARDATARAREAGADCAVAVGGGSTTGLGKAIALETGMPIVAIPTTYAGSEVTPVYGLTEAGTKRTGRDPRVLPRTVIYDPALTVGLPRGLSVTSALNAIAHAAEGLYARDANPVMSLMAEEGIRALAAGIPAVFNDPADLDARSQCLYGAWLCGTVLGGVGMALHHKLCHTLGGSFNLPHAETHTIVLPHALAYNAAAVPEAMARIRRATGAGEQSAAATLFDLAQRHGAPVALRDIGMREEDLDRAADIALASPYWNPRPIEREPIRALLQAAYEGVRPD”, the “soluble on expression in E. coli” value is listed as “soluble”.

Consider “MAHHHHHHMKEARKGPCVPWQQNYARWQHTTPVNHVTVMIALDTMNKDRGAPCLVPGSHRWREGGLLPSVPYDPAKDEAQQLNTIWEITNEEESEMLMDTPPATVDMKRGEALLIHPLTLFATHGNRSLDAVRCCFIHYMGGKTYATQNGPLLPHTTQFQAGAMIQGPFYPVVFDPAMTEELAMLPGESAAQNDITEEV”, for which the “soluble on expression in E. coli” value is recorded as “not soluble”.

As to “MGSDKIHHHHHHMARTVVVGLGRSGIGAARLLQAEGHQVTVLERSIEPHLQSLAADLRLQGIAVELGKPLELNSFIPLLDQLDAVVISPGIAWDHPTLTALRQRGIDIDGEMAVAWRSLSHLPWIAITGTNGKTTVTHLLNHVLESNGLRAPMGGNVGHAAAEVALKWRQPNAQRPDWLVMELSSYQIEAAPEIAPRMGIWTNLTPDHLERHGTLDAYRTIKRGLLERSEIRIFNGDDPDLRSQRSSWDKGLWVSSEGPGTANHRADFWIDAEGLVREPQGALFAASALAMPGQHNLQNLLLVTAAARQTGLPAKAIEASLRSFPGVPHRLEQLGHIQQMSVYNDSKATNYDAACVGLKAVPPPAVVLAGGQTKQGDASGWLKQLDQNACAVILFGAGASELQELIKTSGFSGELHCCSNLNAAVTLAIPLGVERQAACLLLSPACASFDQYQDFEARGEHFRSLISSHLTA”, the “soluble on expression in E. coli” value was “not soluble”.

As for “MSLKFEKFICNLRQFTLTNGLKRSIAIISLVDKKGNISKGEVAPLPPWSKETLEEAIRQIDAKKSFILNIDWTIENYRDALMHLHLFPSVQFGIESALLSFLDPLKTYSIPVSALLMGSKKEILAQAKLRLQEGYQIAKLKVSQLSFSDAAKLIHQLKDTFRLRIDVNRAWKTEDSLQFFSEYSLDSFDYVEEPFQNPKELSLFSHPLAVDESFPSNFSLQDLETLCSLKSLIYKPTLQGGMTTCLPVYKWAKQRNIEFVLSSSFESELGLSHLISMAARLKLTSPIGIGTYHFLPQTEGPFLISNGQVNLKNLEGHHHHHH”, the “soluble on expression in E. coli” value is recorded as “not soluble”.

In the case of “KKEDIVRIHASSGTSGKPTVVGYTAKDIETWSDLIARSLTMIGLSKGDTIQNSMNYGLFTGGLGFHYGVERMGAMIVPAATGNTARQLEMMIDFGVTAVHCTPSYAFYLAETAEELDLIDKLSLKAAIFGGEPWSENTRKQLEKRLNLKAYDCYGLSEMFGPGVGFECQEQDGLHIW”, the “soluble on expression in E. coli” value is on record as “not soluble”.

“PQFEKIEGRMIRILYLLVKPESMSHEQFRKECVVHFQMSAGMPGLHKYEVRLVAGNPTDTHVPYLDVGRIDAIGECWFASEEQYQVYMESDIRKAWFEHGKYFIGQLKPFVTEELV”: the “soluble on expression in E. coli” value is “soluble”.

As to “MKLKNTLLASALLSAAAFSVHAATELTPEQAAALKPYDRIVITGRFNAIGDAVSAVSRRADKEGAASFYVVDTSEFGNSGNWRVVADVYKADAPKADAPKNRVINGIVELPKDQAVQLEPYDTVTVQGFYRSQPEVNDAITKAAKQKGAYAFYIVRQIDANQGGNQRITAFIYKQDAKKRIVQSPDAIPADSEAGRAALAQGGEAAKKVEIPGVATSASPSAEVGRFFETQSSKGGRYTVTLPDGTKVEELNKATAAMMVPFDSVKFTGNYGNMTEISYQVAKRAAKKGAKYYHITRQWQERGNNITISADLYKLEHHHHHH”, the “soluble on expression in E. coli” value is on record as “soluble”.

With “MDNCLAAAALNGVDRRSLQRSAKLALEVLERAKRRAVDWHALERPKGCMGVLAREAPHLEKQPAAGPQRVLPGEREERPPTLSASFRTMAEFMDYTSSQCGKYYSSVPEEGGATHVYRYHRGESKLHMCLDIGNGQRKDRKKTSLGPGGSYQISEHAPEASQPAENISKDLYIEVYPGTYSVTVGSNDLTKKTHVVAVDSGQSVDLVFPVLEHHHHHH”, the “soluble on expression in E. coli” value is listed as “soluble”.

Consider “MALITTGSKFLRALEQEGALAVYAPLEGGYEGRYLRRLRSKGYSALTYSARGLGDPAQFLMDIHGVRPPHLGKQTIGNEAAVGRVEYVLPLVGYPLQNLPANAKGLVLWLLEGHVLSPQELSYFVTLPQAEPRLKVVIEMGGDRGFSWQPLAAVAEAALEHHHHHH”, for which the “soluble on expression in E. coli” value is given as “not soluble”.

“GPQDPDKRRKTLVIIEKTYSLLLDVEDYERRYLLSLEEERPALMDDRKHKICSMYDNLRGKLPGQERPSDDHFVQIMCIRKGKRMVARILPFLSTEQAADILMTTARNLPFLIKKDAQDEVLPCLLSPFSLLLYHLPSVSITSLLRQLMNLPQSAATPALSNPHLTAVLQNKFGLSLLLILLSRGEDLQSSDPATESTQNNQWTEVMFMATRELLRIPQAALAKPISIPTNLVSLFSRYVDRQKLNLLETKLQLVQ”: the “soluble on expression in E. coli” value was “soluble”.

Consider “MSLTTELVDWTHEQKCRKAVASLEKNGFTAVYCGTGQEALEYIVAEAAEAESVGFGGSMSVDDLKVIERIREMGKELLIHGAPGLSLEERVTIMRRQLTCDLFLAGTNALTLSGWLVNIDATGNRVGSMFFGPRKVIVVAGRNKIVDGGVQEAIDRIKEWASPPNARRLNYKTPCGTTGFCSDCNSPDRICRITTVIDRKPRLTDLRVLVVNEEMGFLEHHHHHH”, for which the “soluble on expression in E. coli” value is reported as “soluble”.

On to “MGSDKIHHHHHHMKLTCMQEDLKRGLAAVGHAVAGKSTLPVLANILLATDEGRLKLTATNLEVGINRWISATITRDGAVAVPAKLLTDVVGGLPNDKVTLSLDQKTQTLRVECGRFVSNIKGVDADEFPSLPTVSAQTPLVSLPAEVWQEAIDQVAFAAATDESRPILTGVLVRTRDQQVTLVAADGFRLAMRTIQLSAPVAHAVDCLIPARTLSELARIIGDTDAEVAMVYTPGGSHVLFHTENIEVVSRLIEGRFPDFERIIPQQYLTRMVLDNSELAKAVKLASFFAGSSQNVVKLKIEPASELAPGRVVISANAAELGDNTSELDGSVTGEGGVIALNVRFLADAIAAVHSNQIAFEMQSAQSPAVFKPVGQDGYIHIVMPMSMR”, for which the “soluble on expression in E. coli” value was “not soluble”.

The values above are taken from the DeepSol protein solubility set.
